Experimental data from paper PMC5677552 (Traffic (Copenhagen, Denmark), 2017).

Key:
[1] = target: T1, GST-nup42-CTD/MBP-gle1-CTD^H337R/dbp5^L327V trimeric complex (Saccharomyces cerevisiae, UniProt P20449+Q12315, P20449:L327V/Q12315:H337R); experiment: GST pull-down, IP6-dependent complex formation; assay type: binding; conditions: 50 uM IP6, pH 7.5, 4 C; indirect read-out by complex formation
T1 sequence (Q12315 244-538 H337R): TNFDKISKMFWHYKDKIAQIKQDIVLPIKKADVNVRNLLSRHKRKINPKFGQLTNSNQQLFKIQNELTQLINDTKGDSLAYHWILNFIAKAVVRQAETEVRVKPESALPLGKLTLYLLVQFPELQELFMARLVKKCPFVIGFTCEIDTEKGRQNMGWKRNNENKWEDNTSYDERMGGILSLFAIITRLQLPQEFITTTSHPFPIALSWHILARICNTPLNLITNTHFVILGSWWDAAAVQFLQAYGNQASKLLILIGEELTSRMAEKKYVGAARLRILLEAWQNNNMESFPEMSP
T1 sequence (P20449 1-482 L327V): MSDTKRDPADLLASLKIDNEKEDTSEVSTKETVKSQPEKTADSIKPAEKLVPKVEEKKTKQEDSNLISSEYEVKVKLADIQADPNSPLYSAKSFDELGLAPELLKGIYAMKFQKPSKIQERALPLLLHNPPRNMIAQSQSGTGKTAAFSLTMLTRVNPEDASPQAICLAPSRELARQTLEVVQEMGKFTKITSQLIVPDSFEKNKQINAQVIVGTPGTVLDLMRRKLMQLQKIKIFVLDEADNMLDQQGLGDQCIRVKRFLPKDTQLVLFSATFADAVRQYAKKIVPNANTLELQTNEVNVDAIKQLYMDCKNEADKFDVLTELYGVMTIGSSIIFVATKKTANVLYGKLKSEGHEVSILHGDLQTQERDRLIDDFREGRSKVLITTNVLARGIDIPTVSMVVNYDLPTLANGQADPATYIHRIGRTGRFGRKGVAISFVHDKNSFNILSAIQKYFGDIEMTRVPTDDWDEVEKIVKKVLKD
T1 sequence (P49686 365-430 partner): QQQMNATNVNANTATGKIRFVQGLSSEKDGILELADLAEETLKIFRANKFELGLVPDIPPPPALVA

[2] = target: biotin-nup42^408–424 peptide (S. cerevisiae) (UniProt P49686); experiment: BLI

Kd [2] [µM] | Molecule | GST pull-down, IP6-dependent complex formation (SDS-PAGE) [1]
– | O=P(O)(O)O[C@H]1[C@H](OP(=O)(O)O)[C@@H](OP(=O)(O)O)[C@H](OP(=O)(O)O)[C@@H](OP(=O)(O)O)[C@H]1OP(=O)(O)O [IP6] | complex was observed only in the presence of IP6
0.0915 | MBP-gle1-CTD (from UniProt Q12315 1-538) (domain or fragment) | –
0.599 | MBP-gle1-CTD^QKEE>AAAA (from UniProt Q12315 1-538) (domain or fragment) | –
